Results taken from the Human Domainome abundance scans (Beltran et al. 2025).

B1: Myocardin, residues 363 to 406; numbered along this chain, Q8IZQ8 (parent)
chain: KPGPLPPNLDDLKVSELRQQLRIRGLPVSGTKTALMDRLRPFQD

Variants of: B1
Assay: abundance fitness (aPCA) (normalised: wild type 0, dead -1); higher = more abundant; growth selection in yeast, the domain comes from the species named
Conditions: Homo sapiens

Abundance fitness: each site, then its substitutions
G30: T -0.901; C -0.709; L -0.879; D -0.504; E -0.607; N -0.871; V -0.894; R -0.876; A -0.967; S -0.779; Y -0.951
Q19: W -0.717; P -0.761; T -0.439; M -0.206; E 0.029; D -0.05; V -0.544; Y -0.124; H -0.412; S -0.261; C -0.464; G -0.368; L -0.198; A -0.194
L9: T -0.731; S -0.605; V -0.024; R -0.524; W -0.615
L21: V -0.432; N -0.244; E -0.42; A -0.037; P -0.523; D -0.361; W -1.02; G -0.68; Q -0.517; C -0.271; S -0.94; K -0.296; M -0.321
T31: M -0.62; N 0.352; K -0.217; S 0.103; R -0.319; W -0.994; H -0.331; Q -0.273; G -0.214; V -0.189; P -0.222; L -0.344; A 0.078; C -0.052; F -0.718; D 0.155; E -0.01
G25: L -1.12; S -0.318; M -0.358; T -0.56; P -0.591; V -1.38; F -0.175; N -0.024; W -1.15; A -0.39; Q -0.325; E -0.274; K 0.068; R -0.401; H 0.308; C -0.342; D -0.246
R18: G -0.888; T -0.388; A -0.366; I -0.133; H -0.321; C 0.116; K 0.032; Y -0.744; Q -0.179; V -0.312; P -0.727; F -0.481; W -0.861; M -0.503; L -0.44; E -0.177
E16: S -0.47; H -0.983; V -0.481; T -0.515; D -0.27; P -0.939; Y -0.323; M -0.615; W -0.613; K -0.842; R -0.827; A -0.295; L -0.826
V28: K -0.436; R -0.671; M 0.017; H -0.264; I 0.217; D 0.294; E 0.082; L -0.07; G -0.168; W -0.13; C 0.207; S 0.123; Q 0.027; A -0.002; T 0.153; P -0.198
I23: R -0.211; F -0.378; G -0.24; T -0.261; N -0.45; E 0.043; V -0.092; C -0.315; A 0.091; L -0.021; Y 0.013; Q -0.229; W -0.291; K -0.153; S 0.033; P -0.605
R24: D -0.536; Y -1.16; S -0.881; Q -0.73; K -0.387; T -0.905; F -0.819; A -0.695; L -0.429; E -0.56; V -0.528; M 0.092; P -0.456; N -0.695; W -0.732; G -0.878
S29: Q 0.006; C -0.191; R -0.362; T -0.001; P -0.605; Y -0.095; H -0.108; K -0.113; L -0.333; N -0.264; V -0.097; F -0.245; I -0.376; M -0.003; A -0.071; G 0.042; E 0.129
P27: Y -0.891; T -0.39; E -0.245; W -0.951; D 0.162; M -0.324; R -0.344; H -0.149; C -0.216; Q -0.05; A -0.376; G -0.41; I -0.374; V -0.73; L -0.657; S -0.043
D11: W -0.441; A 0.085; S 0.27; F -0.175; Q -0.007; Y -0.183; G -0.074; P -0.714; K 0.083; C -0.272; V 0; R -0.135; L 0.009; E -0.082; T 0.135; M 0.063; N -0.004
R22: L -0.374; H -0.624; N -0.371; M -0.619; Q -0.928; K 0.063; I -0.384; A -0.138; W -0.771; T -0.258; S -0.21; V -0.557; C -0.194; P -0.818; G -0.531
Q20: H 0.073; R -0.602; C -0.395; A 0.004; F -0.093; K -0.314; G -0.697; P -0.785; S -0.711; L 0.073; D -0.608; Y -0.38; I 0.05; W -0.767; V -0.57
L12: E -0.369; A -0.425; T -0.401; Q -0.506; N -0.507; G -0.638; F 0.053; S -0.274; C -0.499; H -0.614; Y 0.298; R -0.394; V -0.497; K -0.284; D -0.429; P -0.899; W -0.315
L26: V -0.732; E -0.293; A -0.479; R -0.858; M 0.075; K -0.404; W -0.951; T -0.805; G -0.586; P -0.676; H -1.1; Q -0.503; I -0.431; S -0.562
D10: K -0.076; A 0.178; S -0.257; V 0.076; N -0.078; Q -0.163; C 0.245; Y 0.026; W 0.104; R -0.147; T -0.178; G 0.311; F -0.582; E 0.287; H -0.315; P -0.552
L17: W -0.798; G -0.649; I -0.6; D -0.86; R -0.606; N -1; C -1.31; K -0.345; V -0.606; H -0.878; Y -1.02; A -0.583; T -0.779; M -0.265; E -0.454
S15: M -0.245; E 0.171; H 0.023; V -0.243; G -0.122; Y -0.274; I -0.23; T 0.071; Q -0.261; F -0.22; N -0.288; W -0.163; C -0.168; P -0.346; L -0.688; D 0.015; A 0.113; R -0.22
V14: W -1.02; G -0.757; H -0.396; S -0.486; A -0.465; K -0.157; T -0.222; P -0.247; C -0.603; F -0.939; Q -0.994; D -0.702; R -1.02; M -0.116; L -0.16
K32: E -0.286; D -0.489; C -0.763; F -0.642; A -0.449
